Data: patent US20240002522A1 (INSERM INSTITUT NATIONAL DE LA SANTE ET DE LA RECHERCHE …, published 2024)

T1: human CD25 (human, UniProt P01589 22-272)
T1 construct: In the functional assays it was native on T cells or SUDHL-1 cells; also called huCD25; hCD25
T1 sequence: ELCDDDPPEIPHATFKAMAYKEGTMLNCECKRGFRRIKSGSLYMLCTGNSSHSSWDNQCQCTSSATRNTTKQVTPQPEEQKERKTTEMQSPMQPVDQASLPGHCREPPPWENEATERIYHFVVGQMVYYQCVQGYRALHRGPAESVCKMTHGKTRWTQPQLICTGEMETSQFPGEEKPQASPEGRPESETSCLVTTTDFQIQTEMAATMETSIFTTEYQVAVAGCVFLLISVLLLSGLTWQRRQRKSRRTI

B1: B01 (antibody, V domains shown)
VH: QVQLVESGGGVVQPGRSLRLSCAASGFTFSNHAMAWVRQAPGKGLEWVAVISYDGSNKYYADSVKGRFTISRDNAKSTLYLQMNSLRAEDTAVYYCTTGLNSGYDWGQGTLVTVSS
VL: DIQMTQSPSSLSASVGDRVTITCRASQNISSFLNWYQQKPGEAPRRLIYGTNSLQSGVPSRFSGSGSGTDYTLTISSLQPEDFATYYCQQYNSWPWTFGQGTKLEIK
notes: detected with anti-human IgG (Fc specific); also called anti-CD25 antibody B01
B2: H02 (antibody, V domains shown)
VH: QVQLVESGGGVVQPGRSLRLSCAASGFTFSNHAMAWVRQAPGKGLEWVAVISYDGSNKYYRDSVKGRFTISRDNSQSTLYLQMNSLRAEDTAVYYCTTGLNSGYDWGQGTLVTVSS
VL: DIQMTQSPSSLSASVGDRVTITCRASQNVSSFLNWYQQKPGEAPRRLIYGTNSLQSGVPSRFSGSGSGTDYTLTISSLQPEDFATYYCQQYNSWPWTFGQGTKLEIK
notes: detected with anti-human IgG (Fc specific); also called anti-CD25 antibody H02
B3: H01 (antibody, V domains shown)
VH: QVQLVESGGGVVQPGRSLRLSCAASGFTFSNHAMAWVRQAPGKGLEWVAVISYDGSNKYYADSVKGRFTISRDNSQNTLYLQMNSLRAEDTAVYYCTTGLNSGYDWGQGTLVTVSS
VL: DIQMTQSPSSLSASVGDRVTITCRASQNVSSFLNWYQQKPGKAPRRLIYGTSSLQSGVPSRFSGSGSGTDYTLTISSLQPEDFATYYCQQYTSWPWTFGQGTKLEIK
notes: detected with anti-human IgG (Fc specific); also called anti-CD25 antibody H01
B4: G09 (antibody, V domains shown)
VH: QVQLVESGGGVVQPGRSLRLSCAASGFTFSNHAMAWVRQAPGKGLEWVAVISYDGSNKYYRDSVKGRFTISRDNAQNTLYLQMNSLRAEDTAVYYCTTGLNSGYDWGQGTLVTVSS
VL: DIQMTQSPSSLSASVGDRVTITCRASQNVSSFLNWYQQKPGEAPRRLIYGTNSLQSGVPSRFSGSGSGTDYTLTISSLQPEDFATYYCQQYNSWPWTFGQGTKLEIK
notes: detected with anti-human IgG (Fc specific); also called anti-CD25 antibody G09
B5: H08 (antibody, V domains shown)
VH: QVQLVESGGGVVQPGRSLRLSCAASGFTFSNHAMAWVRQAPGKGLEWVAVISYDGSNKYYADSVKGRFTISRDNSKNTLYLQMNSLRAEDTAVYYCTTGLNSGYDWGQGTLVTVSS
VL: DIQMTQSPSSLSASVGDRVTITCRASQSVSSYLNWYQQKPGKAPRRLIYGTNSLQSGVPSRFSGSGSGTDYTLTISSLQPEDFATYYCQQYTSWPWTFGQGTKLEIK
notes: detected with anti-human IgG (Fc specific); also called anti-CD25 antibody H08
B6: H07 (antibody, V domains shown)
VH: QVQLVESGGGVVQPGRSLRLSCAASGFTFSNHAMAWVRQAPGKGLEWVAVISYDGSNKYYADSVKGRFTISRDNAKNTLYLQMNSLRAEDTAVYYCTTGWNSGYDWGQGTLVTVSS
VL: DIQMTQSPSSLSASVGDRVTITCRASQSVNSFLNWYQQKPGKAPRRLIYGTSSLQSGVPSRFSGSGSGTDYTLTISSLQPEDFATYYCQQYTSWPWTFGQGTKLEIK
notes: It was detected with anti-human IgG (Fc specific), and a human IgG1 isotype served as control; also called anti-CD25 antibody H07

What follows are binders tested against T1, human CD25 (assay: flow cytometry on HEK293 cells transiently transfected with huCD25; 3-fold dilutions from 500 nM; detection with anti-human IgG (Fc specific) FITC).

Binding result, binds:
B1
B2
B3
B4
B5
B6
